Molecular target: IRF6 (human, UniProt O14896 1-467)
Experiment: EMSA

B1: IRF6 motif trimer EMSA probe (dsDNA)
DNA 1: TGGTTTCGGTTGACTTGGTTTCGGTTGACTTGGTTTCGGTTGA
DNA 2: TCAACCGAAACCAAGTCAACCGAAACCAAGTCAACCGAAACCA
- binding result: binds
